Data as given in PMC3553987.

Tests used:
[1] = system: U-STAT1 (unphosphorylated STAT1) (human); test: EMSA
[2] = target: T1, c-Myc;Max isoform (human;human) (UniProt P01106+P61244); test: TIRF-PBM; conditions: 5' amino on one strand, coupled to hydrogel
[3] = target: T1, c-Myc;Max isoform (human;human); test: TIRF-PBM; conditions: 5' amino on one strand, coupled to hydrogel; remark: listed apart in the source
[4] = system: P-STAT1 (phosphorylated STAT1) (human); test: TIRF-PBM; conditions: 5' amino on one strand, coupled to hydrogel

T1 sequence (P01106 16-454, chain 1 of 2): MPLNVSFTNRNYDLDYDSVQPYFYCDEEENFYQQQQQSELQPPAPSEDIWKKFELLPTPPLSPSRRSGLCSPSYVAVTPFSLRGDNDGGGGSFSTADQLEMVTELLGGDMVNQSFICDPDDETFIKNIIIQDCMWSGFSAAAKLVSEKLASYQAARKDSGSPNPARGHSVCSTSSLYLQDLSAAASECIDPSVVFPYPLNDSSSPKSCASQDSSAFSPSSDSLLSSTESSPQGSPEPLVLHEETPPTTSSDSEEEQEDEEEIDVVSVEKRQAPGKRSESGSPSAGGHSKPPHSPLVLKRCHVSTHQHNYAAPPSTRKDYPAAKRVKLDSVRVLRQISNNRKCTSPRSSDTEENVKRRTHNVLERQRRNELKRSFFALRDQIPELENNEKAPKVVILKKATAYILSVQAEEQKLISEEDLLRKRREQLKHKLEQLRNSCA
T1 sequence (P61244 2-160, chain 2 of 2): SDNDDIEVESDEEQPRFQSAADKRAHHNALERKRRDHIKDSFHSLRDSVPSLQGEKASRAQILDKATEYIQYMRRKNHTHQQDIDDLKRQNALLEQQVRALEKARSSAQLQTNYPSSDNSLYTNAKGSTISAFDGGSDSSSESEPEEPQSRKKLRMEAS

In the case of GAS cognate DNA (EMSA), the binding signal (fold lower affinity than P-STAT1) [1] is reported as > 200.

For “Myc/Max cognate E-box DNA (probe number not given)”, the Kd [2] was 0.9 nM and the Kd [3] was 3.6 nM.

In the case of sequence 70 (optimal GAS, spacer CCG), the Kd [4] is reported as 3.4 nM.
